Patent US20230395193A1 (priority 2020, published 2023)

B1: M-Q96HR9 (protein, UniProt Q96HR9 1-211, looked up)
Receptor expression-enhancing …: MDGLRQRVEHFLEQRNLVTEVLGALEAKTGVEKRYLAAGAVTLLSLYLLFGYGASLLCNLIGFVYPAYASIKAIESPSKDDDTVWLTYWVVYALFGLAEFFSDLLLSWFPFYYVGKCAFLLFCMAPRPWNGALMLYQRVVRPLFLRHHGAVDRIMNDLSGRALDAAAGITRNVLQVLARSRAGITPVAVAGPSTPLEADLKPSQTPQPKDK
B2: M-Q8TCJ2 (protein, UniProt Q8TCJ2 2-826, looked up)
Dolichyl-diphosphooligosacchar …: AEPSAPESKHKSSLNSSPWSGLMALGNSRHGHHGPGAQCAHKAAGGAAPPKPAPAGLSGGLSQPAGWQSLLSFTILFLAWLAGFSSRLFAVIRFESIIHEFDPWFNYRSTHHLASHGFYEFLNWFDERAWYPLGRIVGGTVYPGLMITAGLIHWILNTLNITVHIRDVCVFLAPTFSGLTSISTFLLTRELWNQGAGLLAACFIAIVPGYISRSVAGSFDNEGIAIFALQFTYYLWVKSVKTGSVFWTMCCCLSYFYMVSAWGGYVFIINLIPLHVFVLLLMQRYSKRVYIAYSTFYIVGLILSMQIPFVGFQPIRTSEHMAAAGVFALLQAYAFLQYLRDRLTKQEFQTLFFLGVSLAAGAVFLSVIYLTYTGYIAPWSGRFYSLWDTGYAKIHIPIIASVSEHQPTTWVSFFFDLHILVCTFPAGLWFCIKNINDERVFVALYAISAVYFAGVMVRLMLTLTPVVCMLSAIAFSNVFEHYLGDDMKRENPPVEDSSDEDDKRNQGNLYDKAGKVRKHATEQEKTEEGLGPNIKSIVTMLMLMLLMMFAVHCTWVTSNAYSSPSVVLASYNHDGTRNILDDFREAYFWLRQNTDEHARVMSWWDYGYQIAGMANRTTLVDNNTWNNSHIALVGKAMSSNETAAYKIMRTLDVDYVLVIFGGVIGYSGDDINKFLWMVRIAEGEHPKDIRESDYFTPQGEFRVDKAGSPTLLNCLMYKMSYYRFGEMQLDFRTPPGFDRTRNAEIGNKDIKFKHLEEAFTSEHWLVRIYKVKAPDNRETLDHKPRVTNIFPKQKYLSKKTTKRKRGYIKNKLVFKKGKKISKKTV
B3: M-Q8NDZ4 (protein, UniProt Q8NDZ4 36-430, looked up)
Divergent protein kinase …: LASWQRNELTDRRFLQLNKCPACFGTSWCRRFLNGQVVFEAWGRLRLLDFLNVKNVYFAQYGEPREGGRRRVVLKRLGSQRELAQLDQSICKRATGRPRCDLLQAMPRTEFARLNGDVRLLTPEAVEGWSDLVHCPSQRLLDRLVRRYAETKDSGSFLLRNLKDSERMQLLLTLAFNPEPLVLQSFPSDEGWPFAKYLGACGRMVAVNYVGEELWSYFNAPWEKRVDLAWQLMEIAEQLTNNDFEFALYLLDVSFDNFAVGPRDGKVIIVDAENVLVADKRLIRQNKPENWDVWYESKFDDCDKEACLSFSKEILCARATVDHNYYAVCQNLLSRHATWRGTSGGLLHDPPSEIAKDGRLEALLDECANPKKRYGRFQAAKELREYLAQLSNNVR
B4: M-Q8NEW0 (protein, UniProt Q8NEW0 1-376, looked up)
Zinc transporter 7: MLPLSIKDDEYKPPKFNLFGKISGWFRSILSDKTSRNLFFFLCLNLSFAFVELLYGIWSNCLGLISDSFHMFFDSTAILAGLAASVISKWRDNDAFSYGYVRAEVLAGFVNGLFLIFTAFFIFSEGVERALAPPDVHHERLLLVSILGFVVNLIGIFVFKHGGHGHSHGSGHGHSHSLFNGALDQAHGHVDHCHSHEVKHGAAHSHDHAHGHGHFHSHDGPSLKETTGPSRQILQGVFLHILADTLGSIGVIASAIMMQNFGLMIADPICSILIAILIVVSVIPLLRESVGILMQRTPPLLENSLPQCYQRVQQLQGVYSLQEQHFWTLCSDVYVGTLKLIVAPDADARWILSQTHNIFTQAGVRQLYVQIDFAAM
modifications: interaction partner of viral M protein
B5: M-Q96ER3 (protein, UniProt Q96ER3 1-474, looked up)
Protein SAAL1: MDRNPSPPPPGRDKEEEEEVAGGDCIGSTVYSKHWLFGVLSGLIQIVSPENTKSSSDDEEQLTELDEEMENEICRVWDMSMDEDVALFLQEFNAPDIFMGVLAKSKCPRLREICVGILGNMACFQEICVSISSDKNLGQVLLHCLYDSDPPTLLETSRLLLTCLSQAEVASVWVERIQEHPAIYDSICFIMSSSTNVDLLVKVGEVVDKLFDLDEKLMLEWVRNGAAQPLDQPQEESEEQPVFRLVPCILEAAKQVRSENPEWLDVYMHILQLLTTVDDGIQAIVHCPDTGKDIWNLLFDLVCHEFCQSDDPPIILQEQKTVLASVFSVLSAIYASQTEQEYLKIEKVDLPLIDSLIRVLQNMEQCQKKPENSAESNTEETKRTDLTQDDFHLKILKDILCEFLSNIFQALTKETVAQGVKEGQLSKQKCSSAFQNLLPFYSPVVEDFIKILREVDKALADDLEKNFPSLKVQT
modifications: host interactor of M
B6: M-Q8TBF5 (protein, UniProt Q8TBF5 22-258, looked up)
GPI …: LTRGPAAAFTAARSDAGIRAMCSEIILRQEVLKDGFHRDLLIKVKFGESIEDLHTCRLLIKQDIPAGLYVDPYELASLRERNITEAVMVSENFDIEAPNYLSKESEVLIYARRDSQCIDCFQAFLPVHCRYHRPHSEDGEASIVVNNPDLLMFCDQEFPILKCWAHSEVAAPCALENEDICQWNKMKYKSVYKNVILQVPVGLTVHTSLVCSVTLLITILCSTLILVAVFKYGHFSL
modifications: prey of SARS-CoV-2 M
B7: M-Q96AA3 (protein, UniProt Q96AA3 1-541, looked up)
Man(5)GlcNAc(2)-PP-dolichol …: MGSQEVLGHAARLASSGLLLQVLFRLITFVLNAFILRFLSKEIVGVVNVRLTLLYSTTLFLAREAFRRACLSGGTQRDWSQTLNLLWLTVPLGVFWSLFLGWIWLQLLEVPDPNVVPHYATGVVLFGLSAVVELLGEPFWVLAQAHMFVKLKVIAESLSVILKSVLTAFLVLWLPHWGLYIFSLAQLFYTTVLVLCYVIYFTKLLGSPESTKLQTLPVSRITDLLPNITRNGAFINWKEAKLTWSFFKQSFLKQILTEGERYVMTFLNVLNFGDQGVYDIVNNLGSLVARLIFQPIEESFYIFFAKVLERGKDATLQKQEDVAVAAAVLESLLKLALLAGLTITVFGFAYSQLALDIYGGTMLSSGSGPVLLRSYCLYVLLLAINGVTECFTFAAMSKEEVDRYNFVMLALSSSFLVLSYLLTRWCGSVGFILANCFNMGIRITQSLCFIHRYYRRSPHRPLAGLHLSPVLLGTFALSGGVTAVSEVFLCCEQGWPARLAHIAVGAFCLGATLGTAFLTETKLIHFLRTQLGVPRRTDKMT
modifications: interaction partner of viral M protein
B8: M-Q7RTS9 (protein, UniProt Q7RTS9 2-669, looked up)
Dymeclin: GSNSSRIGDLPKNEYLKKLSGTESISENDPFWNQLLSFSFPAPTSSSELKLLEEATISVCRSLVENNPRTGNLGALIKVFLSRTKELKLSAECQNHIFIWQTHNALFIICCLLKVFICQMSEEELQLHFTYEEKSPGNYSSDSEDLLEELLCCLMQLITDIPLLDITYEISVEAISTMVVFLSCQLFHKEVLRQSISHKYLMRGPCLPYTSKLVKTLLYNFIRQEKPPPPGAHVFPQQSDGGGLLYGLASGVATGLWTVFTLGGVGSKAAASPELSSPLANQSLLLLLVLANLTDASDAPNPYRQAIMSFKNTQDSSPFPSSIPHAFQINFNSLYTALCEQQTSDQATLLLYTLLHQNSNIRTYMLARTDMENLVLPILEILYHVEERNSHHVYMALIILLILTEDDGFNRSIHEVILKNITWYSERVLTEISLGSLLILVVIRTIQYNMTRTRDKYLHTNCLAALANMSAQFRSLHQYAAQRIISLFSLLSKKHNKVLEQATQSLRGSLSSNDVPLPDYAQDLNVIEEVIRMMLEIINSCLTNSLHHNPNLVYALLYKRDLFEQFRTHPSFQDIMQNIDLVISFFSSRLLQAGAELSVERVLEIIKQGVVALPKDRLKKFPELKFKYVEEEQPEEFFIPYVWSLVYNSAVGLYWNPQDIQLFTMDSD
modifications: interactor of viral M protein
B9: M-Q8WUD6 (protein, UniProt Q8WUD6 2-406, looked up)
Cholinephosphotransferase 1: AAGAGAGSAPRWLRALSEPLSAAQLRRLEEHRYSAAGVSLLEPPLQLYWTWLLQWIPLWMAPNSITLLGLAVNVVTTLVLISYCPTATEEAPYWTYLLCALGLFIYQSLDAIDGKQARRTNSCSPLGELFDHGCDSLSTVFMAVGASIAARLGTYPDWFFFCSFIGMFVFYCAHWQTYVSGMLRFGKVDVTEIQIALVIVFVLSAFGGATMWDYTIPILEIKLKILPVLGFLGGVIFSCSNYFHVILHGGVGKNGSTIAGTSVLSPGLHIGLIIILAIMIYKKSATDVFEKHPCLYILMFGCVFAKVSQKLVVAHMTKSELYLQDTVFLGPGLLFLDQYFNNFIDEYVVLWMAMVISSFDMVIYFSALCLQISRHLHLNIFKTACHQAPEQVQVLSSKSHQNNMD
B10: M-Q86UL3 (protein, UniProt Q86UL3 38-456, looked up)
Glycerol-3-phosphate …: VSFGIRKLYMKSLLKIFAWATLRMERGAKEKNHQLYKPYTNGIIAKDPTSLEEEIKEIRRSGSSKALDNTPEFELSDIFYFCRKGMETIMDDEVTKRFSAEELESWNLLSRTNYNFQYISLRLTVLWGLGVLIRYCFLLPLRIALAFTGISLLVVGTTVVGYLPNGRFKEFMSKHVHLMCYRICVRALTAIITYHDRENRPRNGGICVANHTSPIDVIILASDGYYAMVGQVHGGLMGVIQRAMVKACPHVWFERSEVKDRHLVAKRLTEHVQDKSKLPILIFPEGTCINNTSVMMFKKGSFEIGATVYPVAIKYDPQFGDAFWNSSKYGMVTYLLRMMTSWAIVCSVWYLPPMTREADEDAVQFANRVKSAIARQGGLVDLLWDGGLKREKVKDTFKEEQQKLYSKMIVGNHKDRSRS
modifications: interactor of M protein

System: SARS-CoV-1, MERS-CoV and SARS-CoV-2 proteins in HEK293T cells
Set-up: species or system human

Row | Molecule | MIST_MERS | MIST_SARS1 | MIST_SARS2 | Saint_MERS | Saint_SARS1 | Saint_SARS2
1 | B1 | 0 | 0 | 0.9557 | 0 | 0 | 0.65
2 | B2 | 0 | 0.991 | 0.01779 | 0 | 1 | 0
3 | B3 | 0.7477 | 0 | 0 | 1 | 0 | 0
4 | B4 | 0.5834 | 0.6222 | 0.767 | 0.64 | 0.97 | 1
5 | B5 | 0 | 0.3763 | 0.7695 | 0 | 0.98 | 1
6 | B6 | 0 | 0.9901 | 0.4273 | 0 | 0.99 | 0.33
7 | B7 | 0 | 0.809 | 0.5513 | 0 | 0.95 | 0.98
8 | B8 | 0 | 0.9893 | 0 | 0 | 0.97 | 0
9 | B9 | 0 | 0.8979 | 0.636 | 0 | 0.98 | 0.65
10 | B10 | 0.2998 | 0.8496 | 0.485 | 0.31 | 1 | 0.96
